Measurements taken from the supplement of paper PMC12338614.
± gives the uncertainty stated by the source.

B1: library; numbered along this chain (parent)
chain: MEVVDPQQLGMFTEGELMSVGMDTFIHRIDSTEVIYQPRRKRAKLIGKYLMGDLLGEGSYGKVKEVLDSETLCRRAVKILKKKKLRRIPNGEANVKKEIQLLRRLRHKNVIQLVDVLYNEEKQKMYMVMEYCVCGMQEMLDSVPEKRFPVCQAHGYFCQLIDGLEYLHSQGIVHKDIKPGNLLLTTGGTLKISDLGVAEALHPFAADDTCRTSQGSPAFQPPEIANGLDTFSGFKVDIWSAGVTLYNITTGLYPFEGDNIYKLFENIGKGSYAIPGDCGPPLSDLLKGMLEYEPAKRFSIRQIRQHSWFRKKHPPAEAPVPIPPSPDTKDRWRSMTVVPYLEDLHGADEDEDLFDIEDDIIYTQDFTVPGQVPEEEASHNGQRRGLPKAVCMNGTEAAQLSTKSRAEGRAPNPARKACSASSKIRRLSACKQQ

Variants of: B1
Test: STK11 functional score (HeLa growth suppression), rescaled enrichment; synonymous median = 1, nonsense median = 0 (normalised score)
Conditions: with HeLa; variant type: missense
Procedure: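 Deep mutational scan (TileSeq/POPCode codon randomisation) of full-length codon-optimised STK11 cDNA integrated at a Bxb1 landing pad (AAVS1) in HeLa cells. Restoring functional STK11 suppresses HeLa proliferation. Variant frequencies were measured by NGS before and after about two weeks of growth. The error-corrected enrichment log-ratio was rescaled so that synonymous median = 1 and nonsense median = 0, scores above 1 were compressed, and codon-level and three biological replicate scores were combined; error is the bootstrapped standard error. Scale: synonymous median = 1, nonsense median = 0; below 0.5 = damaging.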

Point of comparison: D208L, STK11 functional score 1.36 ± 0.18. Against it:
- F234R — within error, 1.5 ± 0.19
- D30W — within error, 1.3 ± 0.58
- K423I — within error, 1.25 ± 0.18
- G276V — within error, 1.05 ± 0.19
- R211D — within error, 1.68 ± 0.17
- M136H — lower, -0.214 ± 0.081
- K312N — within error, 1.58 ± 0.43
- G21R — within error, 1.2 ± 0.64
- L45C — within error, 1.08 ± 0.4
- Y118I — within error, 1.32 ± 0.12
- G135R — within error, 1.38 ± 0.38
- A198T — within error, 1.23 ± 0.13
- K269L — within error, 1.45 ± 0.2
- K269R — within error, 1.22 ± 0.28
- K269V — within error, 1.22 ± 0.43
- Y166G — within error, 1.23 ± 0.34
- Y166C — lower, 0.804 ± 0.08
- Y166M — lower, 0.651 ± 0.08
- G242C — lower, -0.0194 ± 0.091
- G242P — lower, 0.0217 ± 0.14
- T32K — lower, 0.829 ± 0.21
- T32I — lower, 0.842 ± 0.13
- V95C — within error, 0.913 ± 0.28
- E70Q — lower, 0.703 ± 0.26
- L113I — lower, 0.313 ± 0.082
- L113E — within error, 1.13 ± 0.53
- S19K — within error, 1.53 ± 0.39
- R405H — within error, 1.59 ± 0.29
- H306S — within error, 1.53 ± 0.15
- Q123S — within error, 1.49 ± 0.17
- Q123F — lower, 0.854 ± 0.079
- V3G — within error, 1.47 ± 0.26
- G58A — within error, 0.935 ± 0.29
- G58F — lower, 0.0123 ± 0.09
- G58Y — lower, -0.201 ± 0.096
- E317D — within error, 1.57 ± 0.34
- E317I — within error, 1.55 ± 0.19
- E317Q — within error, 1.2 ± 0.4
- G188V — lower, 0.388 ± 0.11
- I322W — within error, 1.18 ± 0.088
- L353F — within error, 1.27 ± 0.6
- V390F — within error, 1.18 ± 0.4
- V390E — within error, 1.44 ± 0.34
- V390A — within error, 1.51 ± 0.31
- Q305S — within error, 0.954 ± 0.59
- E342P — within error, 1.53 ± 0.15
- I111W — lower, -0.448 ± 0.08
- T328I — within error, 1.29 ± 0.075
- Q364P — within error, 1.4 ± 0.27
- P413C — within error, 1.17 ± 0.41
- D355R — within error, 1.43 ± 0.22
- L17T — within error, 1.62 ± 0.18
- L201E — lower, 0.334 ± 0.27
- L201I — within error, 1.48 ± 0.3
- I26M — within error, 1.63 ± 0.33
- T71A — within error, 1.48 ± 0.31
- P217C — lower, 0.451 ± 0.36
- V150H — within error, 1.26 ± 0.38
- V372L — within error, 1.4 ± 0.3
- V372K — within error, 1.6 ± 0.24
- R147I — within error, 1.22 ± 0.2
- E16C — within error, 1.38 ± 0.69
- I88D — within error, 1.58 ± 0.25
- I88C — within error, 1.07 ± 0.28
- I356D — within error, 1.27 ± 0.43
- K64T — within error, 1.08 ± 0.1
- K64A — within error, 1.59 ± 0.31
- K311N — within error, 0.848 ± 0.47
- N181P — lower, -0.0573 ± 0.11
- N181H — lower, 0.134 ± 0.14
- F148I — within error, 1.31 ± 0.41
- F148H — lower, -0.00697 ± 0.084
- E376F — within error, 1.35 ± 0.37
- E376W — lower, 0.781 ± 0.22
- L55A — lower, 0.122 ± 0.29
- R74S — lower, 0.519 ± 0.21
- P315H — within error, 1.34 ± 0.24
- P315T — within error, 1.2 ± 0.42
- G270A — lower, 0.849 ± 0.32
- G270D — within error, 1.52 ± 0.2
- T244L — lower, 1.02 ± 0.094
- P281D — within error, 1.45 ± 0.3
- P281N — within error, 1.66 ± 0.19
- R383Q — within error, 1.51 ± 0.28
- I267M — lower, 0.815 ± 0.11
- P222R — lower, 0.93 ± 0.23
- P222V — lower, 0.826 ± 0.12
- P294W — the same, 1.36 ± 0.11
- I424N — within error, 1.44 ± 0.4
- T250I — within error, 1.35 ± 0.2
- A429E — within error, 1.55 ± 0.19
- P6M — lower, 0.679 ± 0.19
- P6R — within error, 1.29 ± 0.12
- P6V — within error, 1.5 ± 0.15
- H379K — within error, 1.37 ± 0.22
- Y156Q — lower, 0.148 ± 0.081
- M129R — within error, 1.13 ± 0.28
- E351V — the same, 1.36 ± 0.18
- E351Y — within error, 1.23 ± 0.39
- T209G — the same, 1.36 ± 0.13
- H345D — within error, 1.27 ± 0.37
- H345T — within error, 1.57 ± 0.17
- S232P — within error, 0.971 ± 0.44
- D359S — within error, 1.15 ± 0.22
- R104S — lower, 0.76 ± 0.2
- R104I — within error, 1.23 ± 0.25
- P275N — within error, 1.41 ± 0.16
- G227F — within error, 1.14 ± 0.12
- G227Q — within error, 1.26 ± 0.45
- K48I — within error, 1.34 ± 0.13
- Y36N — within error, 1.6 ± 0.22
- K262R — within error, 1.18 ± 0.47
- K82G — within error, 1.23 ± 0.17
- A389R — within error, 1.56 ± 0.29
- N393P — within error, 1.59 ± 0.23
- N393R — within error, 1.07 ± 0.18
- N393V — lower, 0.689 ± 0.33
- N393A — within error, 1.59 ± 0.23
- M139V — lower, 0.965 ± 0.098
- M139L — within error, 1.2 ± 0.11
- L286N — lower, 0.195 ± 0.1
- T13V — within error, 1.6 ± 0.25
- N247G — lower, 0.808 ± 0.097
- I29T — lower, 0.53 ± 0.082
- Y49F — within error, 1.12 ± 0.3
- Y49L — lower, 0.852 ± 0.22
- E374L — within error, 1.2 ± 0.38
- Q170V — within error, 1.26 ± 0.37
- Q170P — lower, 0.0405 ± 0.082
- E375K — within error, 1.56 ± 0.51
- E375R — within error, 1.46 ± 0.21
- F309L — within error, 0.874 ± 0.32
- D229F — within error, 0.981 ± 0.57
- R297P — lower, -0.429 ± 0.077
- L228F — within error, 1.34 ± 0.43
- R40M — within error, 1.28 ± 0.43
- S419N — within error, 1.54 ± 0.13
- S419G — higher, 1.58 ± 0.034
- S419E — within error, 1.24 ± 0.45
- K146R — within error, 1.58 ± 0.39
- P369I — within error, 1.21 ± 0.27
- E14W — lower, 0.426 ± 0.6
- S428Y — within error, 1.39 ± 0.16
- S428G — within error, 1.6 ± 0.32
- T230L — lower, 0.829 ± 0.16
- L54N — within error, 1.64 ± 0.18
- L54A — within error, 0.975 ± 0.29
- K83Q — lower, 0.343 ± 0.37
- G394P — within error, 1.52 ± 0.25
- V368L — within error, 1.35 ± 0.23
- V368I — within error, 1.53 ± 0.16
- V368R — within error, 0.87 ± 0.44
- D162L — within error, 1.04 ± 0.23
- D162W — within error, 1.6 ± 0.22
- L341E — within error, 1.55 ± 0.15
- Q220C — within error, 1.18 ± 0.45
- L344R — within error, 1.46 ± 0.25
- K41F — within error, 1.14 ± 0.082
- K41D — within error, 1.39 ± 0.18
- P411R — within error, 0.986 ± 0.35
- P411V — within error, 1.62 ± 0.12
- T367S — within error, 1.51 ± 0.24
- T367R — within error, 1.32 ± 0.27
- E98I — lower, 0.496 ± 0.18
- E98V — lower, 0.117 ± 0.083
- W308S — lower, -0.303 ± 0.091
